IntAct's records for PubMed 30774623

Target: agrl1_mouse Adgrl1 (UniProt Q80TR1)
Sequence of UniProt Q80TR1 (Q80TR1 whole entry): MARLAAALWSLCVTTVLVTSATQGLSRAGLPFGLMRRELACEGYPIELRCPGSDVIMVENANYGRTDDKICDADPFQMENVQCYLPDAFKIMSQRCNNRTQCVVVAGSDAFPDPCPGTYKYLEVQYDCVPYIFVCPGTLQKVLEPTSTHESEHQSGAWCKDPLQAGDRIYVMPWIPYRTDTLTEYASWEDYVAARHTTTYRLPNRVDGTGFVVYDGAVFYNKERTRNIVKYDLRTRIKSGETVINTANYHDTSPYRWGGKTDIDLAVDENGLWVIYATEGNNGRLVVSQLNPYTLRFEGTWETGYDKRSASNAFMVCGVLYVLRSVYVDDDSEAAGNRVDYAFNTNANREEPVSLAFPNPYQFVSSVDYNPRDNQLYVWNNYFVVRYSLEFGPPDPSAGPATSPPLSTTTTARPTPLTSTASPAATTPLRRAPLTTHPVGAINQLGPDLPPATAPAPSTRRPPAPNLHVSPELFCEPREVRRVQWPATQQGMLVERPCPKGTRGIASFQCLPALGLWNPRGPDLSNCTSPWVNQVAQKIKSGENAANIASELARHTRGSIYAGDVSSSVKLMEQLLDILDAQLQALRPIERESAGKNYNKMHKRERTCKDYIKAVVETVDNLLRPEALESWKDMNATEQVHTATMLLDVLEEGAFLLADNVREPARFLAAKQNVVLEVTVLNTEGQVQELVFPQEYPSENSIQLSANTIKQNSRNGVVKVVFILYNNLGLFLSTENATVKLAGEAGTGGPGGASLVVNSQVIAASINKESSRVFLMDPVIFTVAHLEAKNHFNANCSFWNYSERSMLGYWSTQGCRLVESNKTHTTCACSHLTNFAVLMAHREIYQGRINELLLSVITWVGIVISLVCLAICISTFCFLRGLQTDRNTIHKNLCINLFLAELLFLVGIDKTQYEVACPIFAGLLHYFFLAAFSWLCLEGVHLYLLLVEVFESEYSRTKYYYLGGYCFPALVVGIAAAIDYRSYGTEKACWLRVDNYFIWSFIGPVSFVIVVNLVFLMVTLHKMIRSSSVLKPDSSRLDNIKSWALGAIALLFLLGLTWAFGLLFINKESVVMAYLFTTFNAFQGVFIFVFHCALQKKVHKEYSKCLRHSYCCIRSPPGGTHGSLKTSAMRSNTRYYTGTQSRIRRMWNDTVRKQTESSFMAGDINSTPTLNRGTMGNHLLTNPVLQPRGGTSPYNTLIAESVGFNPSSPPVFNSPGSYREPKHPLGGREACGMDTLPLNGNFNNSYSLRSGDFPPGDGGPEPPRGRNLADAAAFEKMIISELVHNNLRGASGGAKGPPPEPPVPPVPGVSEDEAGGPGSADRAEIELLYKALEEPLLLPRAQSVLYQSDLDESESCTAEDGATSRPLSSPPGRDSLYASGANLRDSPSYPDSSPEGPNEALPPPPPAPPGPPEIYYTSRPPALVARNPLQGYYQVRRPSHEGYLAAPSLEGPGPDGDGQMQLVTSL

effect of a mutation on the interaction: with no effect
Substance: Teneurin-1 (Mus musculus), Q9WTS4 R37K
